Reference: patent US20230174652A1 (Regeneron, published 2023)
Blank lines part the entries; values can stand above or below the binder they belong to.

Key:
human CD22 = target: T1, human CD22 (human, UniProt P20273 20-847); assay: flow cytometry on Raji/CD80 and CD86 negative cells
T1 construct: whole, on cells; also called hCD22
Description: Briefly, human CD4+ T-cells, HEK293/hCD20, HEK293/hCD20/hCD22 and Raji/CD80 and CD86 negative cells were resuspended in staining buffer containing D-PBS+2% FBS. […] A negative control sample was included containing no antibody. Cells were washed once with cold staining buffer and incubated for 30-45 minutes with Allophycocyanin (APC) labeled anti-human secondary antibody. After incubation, cells were washed once with cold D-PBS buffer without FBS and incubated with LIVE/DEAD Fixable Green Dead Cell Stain (Invitrogen) according to manufacturer's instructions to discriminate between live and dead cells. Cells were then fixed in BD Cytofix Buffer according to manufacturer's instructions, washed, re-suspended in staining buffer, and analyzed by flow cytometry on an iQue Screener flow cytometer. For EC₅₀ determinations, geometric mean fluorescence intensity (MFI) values were analyzed using a four parameter logistic equation over a 9-point response curve using GraphPad Prism. Fold binding was calculated using the following equation:

[1] = target: T2, CD3 molecules on human T cells (human, UniProt P07766 23-207); assay: cell-based or functional assay
[2] = target: T2, CD3 molecules on human T cells; assay: cell-based or functional assay; remark: listed apart in the source

T2 sequence (P07766 23-207): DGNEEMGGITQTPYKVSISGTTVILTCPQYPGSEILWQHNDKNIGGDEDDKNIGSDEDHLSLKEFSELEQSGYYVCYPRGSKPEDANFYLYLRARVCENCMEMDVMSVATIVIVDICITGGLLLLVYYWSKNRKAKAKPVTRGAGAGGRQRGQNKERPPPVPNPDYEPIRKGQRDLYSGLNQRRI

EC50 (human CD22): 9760 pM
B1: REGN5837 (bispecific antibody, human IgG4, V domains shown)
VH 1: QVQLQESGPGLVKPSETLSLTCTVSGGSISSYYWSWIRQPPGKGLEWIGYIYYSGITHYNPSLKSRVTISVDTSKIQFSLKLSSVTAADTAVYYCARWGVRRDYYYYGMDVWGQGTTVTVSS
VH 2: EVQLVQSGAEVKKPGESLKISCKGSGYNFATYWIAWVRQMPGKGLELMGIIYPGDSETTYNPSFQGQVTISADKSISNAYLQWSSLKASDTAMYYCARVGGYCSGTSCHNWFDPWGLGTLVTVSS
VL: not shown
notes: also called anti-CD22 x anti-CD28 bispecific antibody; CD22xCD28

IFN-gamma release, Fold change (CKR), fixed REGN5837 0 (reference) [1]: 1 fold
IFN-gamma release, REGN1979 EC50 (M), fixed REGN5837 0 [1]: 1.82e-10 M
IFN-gamma release, REGN1979 EC50 (M), fixed REGN5837 1.0 X 10^-7 [1]: 1.17e-10 M
IFN-gamma release, REGN1979 EC50 (M), fixed REGN5837 1.67 X 10^-8 [1]: 5.34e-11 M
IFN-gamma release, REGN1979 EC50 (M), fixed REGN5837 2.78 X 10^-9 [1]: 2e-10 M
IFN-gamma release, REGN1979 EC50 (M), fixed REGN5837 4.63 X 10^-10 [1]: 6.72e-11 M
IFN-gamma release, REGN1979 EC50 (M), fixed REGN5837 7.72 X 10^-11 [1]: 6.57e-11 M
IL-2 release, Fold change (CKR), fixed REGN5837 0 (reference) [1]: 1 fold
IL-2 release, REGN1979 EC50 (M), fixed REGN5837 0 [1]: 1.25e-10 M
IL-2 release, REGN1979 EC50 (M), fixed REGN5837 1.0 X 10^-7 [1]: 2.81e-11 M
IL-2 release, REGN1979 EC50 (M), fixed REGN5837 1.67 X 10^-8 [1]: 1.96e-11 M
IL-2 release, REGN1979 EC50 (M), fixed REGN5837 2.78 X 10^-9 [1]: 5.18e-12 M
IL-2 release, REGN1979 EC50 (M), fixed REGN5837 4.63 X 10^-10 [1]: 5.36e-11 M
IL-2 release, REGN1979 EC50 (M), fixed REGN5837 7.72 X 10^-11 [1]: 3.89e-08 M
IL-4 release, Fold change (CKR), fixed REGN5837 0 (reference) [1]: 1 fold
IL-4 release, REGN1979 EC50 (M), fixed REGN5837 0 [1]: 9.99e-10 M
IL-4 release, REGN1979 EC50 (M), fixed REGN5837 1.0 X 10^-7 [1]: 1.66e-11 M
IL-4 release, REGN1979 EC50 (M), fixed REGN5837 1.67 X 10^-8 [1]: 1.53e-11 M
IL-4 release, REGN1979 EC50 (M), fixed REGN5837 2.78 X 10^-9 [1]: 1.28e-11 M
IL-4 release, REGN1979 EC50 (M), fixed REGN5837 4.63 X 10^-10 [1]: 1.89e-11 M
IL-4 release, REGN1979 EC50 (M), fixed REGN5837 7.72 X 10^-11 [1]: 3.77e-10 M
IL-6 release, Fold change (CKR), fixed REGN5837 0 (reference) [1]: 1 fold
IL-6 release, REGN1979 EC50 (M), fixed REGN5837 0 [1]: 7.42e-11 M
IL-6 release, REGN1979 EC50 (M), fixed REGN5837 1.0 X 10^-7 [1]: 5.13e-11 M
IL-6 release, REGN1979 EC50 (M), fixed REGN5837 1.67 X 10^-8 [1]: 7.89e-12 M
IL-6 release, REGN1979 EC50 (M), fixed REGN5837 2.78 X 10^-9 [1]: 2.68e-11 M
IL-6 release, REGN1979 EC50 (M), fixed REGN5837 4.63 X 10^-10 [1]: 1.45e-12 M
IL-6 release, REGN1979 EC50 (M), fixed REGN5837 7.72 X 10^-11 [1]: 1.61e-10 M
IL-10 release, Fold change (CKR), fixed REGN5837 0 (reference) [1]: 1 fold
IL-10 release, REGN1979 EC50 (M), fixed REGN5837 0 [1]: 9.95e-11 M
IL-10 release, REGN1979 EC50 (M), fixed REGN5837 1.0 X 10^-7 [1]: 3.54e-11 M
IL-10 release, REGN1979 EC50 (M), fixed REGN5837 1.67 X 10^-8 [1]: 1.04e-10 M
IL-10 release, REGN1979 EC50 (M), fixed REGN5837 2.78 X 10^-9 [1]: 2.43e-10 M
IL-10 release, REGN1979 EC50 (M), fixed REGN5837 4.63 X 10^-10 [1]: 5.29e-11 M
IL-10 release, REGN1979 EC50 (M), fixed REGN5837 7.72 X 10^-11 [1]: 3.34e-11 M
IL-17A release, Fold change (CKR), fixed REGN5837 0 (reference) [1]: 1 fold
IL-17A release, REGN1979 EC50 (M), fixed REGN5837 0 [1]: 2.5e-10 M
IL-17A release, REGN1979 EC50 (M), fixed REGN5837 1.0 X 10^-7 [1]: 3.22e-10 M
IL-17A release, REGN1979 EC50 (M), fixed REGN5837 1.67 X 10^-8 [1]: 1.11e-10 M
IL-17A release, REGN1979 EC50 (M), fixed REGN5837 2.78 X 10^-9 [1]: 7.6e-11 M
IL-17A release, REGN1979 EC50 (M), fixed REGN5837 4.63 X 10^-10 [1]: 4.63e-10 M
IL-17A release, REGN1979 EC50 (M), fixed REGN5837 7.72 X 10^-11 [1]: 1.86e-10 M
TNF alpha release, Fold change (CKR), fixed REGN5837 0 (reference) [1]: 1 fold
TNF alpha release, REGN1979 EC50 (M), fixed REGN5837 0 [1]: 2.43e-10 M
TNF alpha release, REGN1979 EC50 (M), fixed REGN5837 1.0 X 10^-7 [1]: 5.03e-12 M
TNF alpha release, REGN1979 EC50 (M), fixed REGN5837 1.67 X 10^-8 [1]: 8.69e-13 M
TNF alpha release, REGN1979 EC50 (M), fixed REGN5837 2.78 X 10^-9 [1]: 3.45e-12 M
TNF alpha release, REGN1979 EC50 (M), fixed REGN5837 7.72 X 10^-11 [1]: 1.62e-10 M
CD4+ T cell activation (% CD25+), Fold Change (EC50), fixed REGN5837 0 (reference) [2]: 1 fold
CD4+ T cell activation (% CD25+), REGN1979 EC50 (M), fixed REGN5837 0 [2]: 9.17e-13 M
CD4+ T cell activation (% CD25+), REGN1979 EC50 (M), fixed REGN5837 1.00 × 10^-7 [2]: 1.16e-13 M
CD4+ T cell activation (% CD25+), REGN1979 EC50 (M), fixed REGN5837 1.67 × 10^-8 [2]: 8.7e-14 M
CD4+ T cell activation (% CD25+), REGN1979 EC50 (M), fixed REGN5837 4.63 × 10^-10 [2]: 1.46e-13 M
CD4+ T cell activation (% CD25+), REGN1979 EC50 (M), fixed REGN5837 7.72 × 10^-11 [2]: 2.08e-13 M
CD4+ T-cell Proliferation, Fold Change (EC50), fixed REGN5837 0 (reference) [2]: 1 fold
CD4+ T-cell Proliferation, REGN1979 EC50 (M), fixed REGN5837 0 [2]: 1.63e-11 M
CD4+ T-cell Proliferation, REGN1979 EC50 (M), fixed REGN5837 1.00 × 10^-7 [2]: 8.42e-13 M
CD4+ T-cell Proliferation, REGN1979 EC50 (M), fixed REGN5837 1.67 × 10^-8 [2]: 9.31e-13 M
CD4+ T-cell Proliferation, REGN1979 EC50 (M), fixed REGN5837 2.78 × 10^-9 [2]: 4.25e-13 M
CD4+ T-cell Proliferation, REGN1979 EC50 (M), fixed REGN5837 4.63 × 10^-10 [2]: 1.25e-12 M
CD4+ T-cell Proliferation, REGN1979 EC50 (M), fixed REGN5837 7.72 × 10^-11 [2]: 2.36e-12 M
CD8+ T cell activation (% CD25+), Fold Change (EC50), fixed REGN5837 0 (reference) [2]: 1 fold
CD8+ T cell activation (% CD25+), REGN1979 EC50 (M), fixed REGN5837 0 [2]: 3.38e-12 M
CD8+ T cell activation (% CD25+), REGN1979 EC50 (M), fixed REGN5837 1.00 × 10^-7 [2]: 6.32e-13 M
CD8+ T cell activation (% CD25+), REGN1979 EC50 (M), fixed REGN5837 1.67 × 10^-8 [2]: 5.88e-13 M
CD8+ T cell activation (% CD25+), REGN1979 EC50 (M), fixed REGN5837 2.78 × 10^-9 [2]: 2.68e-13 M
CD8+ T cell activation (% CD25+), REGN1979 EC50 (M), fixed REGN5837 4.63 × 10^-10 [2]: 9.01e-13 M
CD8+ T cell activation (% CD25+), REGN1979 EC50 (M), fixed REGN5837 7.72 × 10^-11 [2]: 1.64e-12 M
CD8+ T-cell Proliferation, Fold Change (EC50), fixed REGN5837 0 (reference) [2]: 1 fold
CD8+ T-cell Proliferation, REGN1979 EC50 (M), fixed REGN5837 0 [2]: 1.97e-11 M
CD8+ T-cell Proliferation, REGN1979 EC50 (M), fixed REGN5837 1.00 × 10^-7 [2]: 1.55e-12 M
CD8+ T-cell Proliferation, REGN1979 EC50 (M), fixed REGN5837 1.67 × 10^-8 [2]: 8.31e-13 M
CD8+ T-cell Proliferation, REGN1979 EC50 (M), fixed REGN5837 2.78 × 10^-9 [2]: 7.09e-13 M
CD8+ T-cell Proliferation, REGN1979 EC50 (M), fixed REGN5837 4.63 × 10^-10 [2]: 3.43e-12 M
CD8+ T-cell Proliferation, REGN1979 EC50 (M), fixed REGN5837 7.72 × 10^-11 [2]: 8.36e-12 M
B2: REGN1979 (bispecific antibody, human IgG4 S228P, kappa)
heavy 1: EVQLVESGGGLVQPGRSLRLSCVASGFTFNDYAMHWVRQAPGKGLEWVSVISWNSDSIGYADSVKGRFTISRDNAKNSLYLQMHSLRAEDTALYYCAKDNHYGSGSYYYYQYGMDVWGQGTTVTVSSASTKGPSVFPLAPCSRSTSESTAALGCLVKDYFPEPVTVSWNSGALTSGVHTFPAVLQSSGLYSLSSVVTVPSSSLGTKTYTCNVDHKPSNTKVDKRVESKYGPPCPPCPAPPVAGPSVFLFPPKPKDTLMISRTPEVTCVVVDVSQEDPEVQFNWYVDGVEVHNAKTKPREEQFNSTYRVVSVLTVLHQDWLNGKEYKCKVSNKGLPSSIEKTISKAKGQPREPQVYTLPPSQEEMTKNQVSLTCLVKGFYPSDIAVEWESNGQPENNYKTTPPVLDSDGSFFLYSRLTVDKSRWQEGNVFSCSVMHEALHNHYTQKSLSLSLGK
heavy 2: EVQLVESGGGLVQPGRSLRLSCAASGFTFDDYTMHWVRQAPGKGLEWVSGISWNSGSIGYADSVKGRFTISRDNAKKSLYLQMNSLRAEDTALYYCAKDNSGYGHYYYGMDVWGQGTTVTVASASTKGPSVFPLAPCSRSTSESTAALGCLVKDYFPEPVTVSWNSGALTSGVHTFPAVLQSSGLYSLSSVVTVPSSSLGTKTYTCNVDHKPSNTKVDKRVESKYGPPCPPCPAPPVAGPSVFLFPPKPKDTLMISRTPEVTCVVVDVSQEDPEVQFNWYVDGVEVHNAKTKPREEQFNSTYRVVSVLTVLHQDWLNGKEYKCKVSNKGLPSSIEKTISKAKGQPREPQVYTLPPSQEEMTKNQVSLTCLVKGFYPSDIAVEWESNGQPENNYKTTPPVLDSDGSFFLYSRLTVDKSRWQEGNVFSCSVMHEALHNRFTQKSLSLSLGK
light: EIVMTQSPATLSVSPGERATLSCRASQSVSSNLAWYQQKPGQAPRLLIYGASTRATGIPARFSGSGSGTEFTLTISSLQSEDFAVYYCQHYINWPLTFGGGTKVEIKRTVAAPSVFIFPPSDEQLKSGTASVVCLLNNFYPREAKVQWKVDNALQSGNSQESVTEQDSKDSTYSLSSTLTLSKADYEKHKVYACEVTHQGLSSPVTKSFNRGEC
WSU-DLCL2 Cell Killing, Fold Change (EC50), fixed REGN5837 0 (reference) [2]: 1 fold
WSU-DLCL2 Cell Killing, REGN1979 EC50 (M), fixed REGN5837 0 [2]: 2.89e-12 M
WSU-DLCL2 Cell Killing, REGN1979 EC50 (M), fixed REGN5837 1.00 × 10^-7 [2]: 8.53e-14 M
WSU-DLCL2 Cell Killing, REGN1979 EC50 (M), fixed REGN5837 1.67 × 10^-8 [2]: 1.85e-13 M
WSU-DLCL2 Cell Killing, REGN1979 EC50 (M), fixed REGN5837 2.78 × 10^-9 [2]: 3.98e-13 M
WSU-DLCL2 Cell Killing, REGN1979 EC50 (M), fixed REGN5837 4.63 × 10^-10 [2]: 3.46e-13 M
WSU-DLCL2 Cell Killing, REGN1979 EC50 (M), fixed REGN5837 7.72 × 10^-11 [2]: 8.37e-13 M
